Test results published in US20040102611.

T1: DBF4 (human DBF4/ASK1), Q9UBU7
T1 chain: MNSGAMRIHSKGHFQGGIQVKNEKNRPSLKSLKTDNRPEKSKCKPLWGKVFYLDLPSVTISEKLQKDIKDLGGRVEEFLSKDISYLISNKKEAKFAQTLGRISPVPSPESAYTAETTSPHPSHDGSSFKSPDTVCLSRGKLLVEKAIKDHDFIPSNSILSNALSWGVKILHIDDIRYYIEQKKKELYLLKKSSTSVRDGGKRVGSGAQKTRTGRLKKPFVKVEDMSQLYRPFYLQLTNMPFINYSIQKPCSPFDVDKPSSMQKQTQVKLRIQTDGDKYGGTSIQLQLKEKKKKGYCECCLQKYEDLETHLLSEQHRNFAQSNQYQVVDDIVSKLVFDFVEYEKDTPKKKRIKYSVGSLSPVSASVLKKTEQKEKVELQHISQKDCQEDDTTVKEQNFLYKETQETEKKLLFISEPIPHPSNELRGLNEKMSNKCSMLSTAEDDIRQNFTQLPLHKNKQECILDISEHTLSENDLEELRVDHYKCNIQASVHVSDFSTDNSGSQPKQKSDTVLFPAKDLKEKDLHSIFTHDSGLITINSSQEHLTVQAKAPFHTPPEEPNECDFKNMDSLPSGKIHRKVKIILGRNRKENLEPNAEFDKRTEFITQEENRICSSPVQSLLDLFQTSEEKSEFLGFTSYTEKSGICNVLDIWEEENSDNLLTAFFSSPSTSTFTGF

T2: HA-DRF1 (DRF1 with N-terminal HA epitope, expressed from pCDNAHAdrf1)
T2 chain: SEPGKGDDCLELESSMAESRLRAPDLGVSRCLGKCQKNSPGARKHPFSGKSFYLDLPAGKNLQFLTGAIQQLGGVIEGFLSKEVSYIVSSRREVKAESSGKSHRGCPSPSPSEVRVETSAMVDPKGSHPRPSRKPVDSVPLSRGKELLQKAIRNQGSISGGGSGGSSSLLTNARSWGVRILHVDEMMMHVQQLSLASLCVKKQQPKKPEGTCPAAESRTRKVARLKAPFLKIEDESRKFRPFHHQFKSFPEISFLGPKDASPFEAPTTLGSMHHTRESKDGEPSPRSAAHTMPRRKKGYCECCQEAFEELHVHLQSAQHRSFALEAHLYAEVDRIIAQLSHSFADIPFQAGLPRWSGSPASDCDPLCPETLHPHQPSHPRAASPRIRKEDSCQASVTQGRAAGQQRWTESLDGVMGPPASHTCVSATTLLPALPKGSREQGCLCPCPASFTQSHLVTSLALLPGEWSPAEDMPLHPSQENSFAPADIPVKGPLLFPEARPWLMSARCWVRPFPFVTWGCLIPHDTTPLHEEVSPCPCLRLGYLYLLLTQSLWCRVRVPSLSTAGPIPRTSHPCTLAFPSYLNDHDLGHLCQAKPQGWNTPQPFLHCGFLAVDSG

B1: FLAG-tagged human CDC7 kinase, wild type (pCdc7FLAG-tagged, in pCMV-Tag2) (protein)
chain: MEASLGIQMDEPMAFSPQRDRFQAEGSLKKNEQNFKLAGVKKDIEKLYEAVPQLSNVFKIEDKIGEGTFSSVYLATAQLQVGPEEKIALKHLIPTSHPIRIAAELQCLTVAGGQDNVMGVKYCFRKNDHVVIAMPYLEHESFLDILNSLSFQEVREYMLNLFKALKRIHQFGIVHRDVKPSNFLYNRRLKKYALVDFGLAQGTHDTKIELLKFVQSEAQQERCSQNKSHIITGNKIPLSGPVPKELDQQSTTKASVKRPYTNAQIQIKQGKDGKEGSVGLSVQRSVFGERNFNIHSSISHESPAVKLMKQSKTVDVLSRKLATKKKAISTKVMNSAVMRKTASSCPASLTCDCYATDKVCSICLSRRQQVAPRAGTPGFRAPEVLTKCPNQTTAIDMWSAGVIFLSLLSGRYPFYKASDDLTALAQIMTIRGSRETIQAAKTFGKSILCSKEVPAQDLRKLCERLRGMDSSTPKLTSDIQGHASHQPAISEKTDHKASCLVQTPPGQYSGNSFKKGDSNSCEHCFDEYNTNLEGWNEVPDEAYDLLDKLLDLNPASRITAEEALLHPFFKDMSL
B2: FLAG-tagged human CDC7 kinase, kinase negative form K90R (pCdc7FLAG K90R) (protein)
chain: MEASLGIQMDEPMAFSPQRDRFQAEGSLKKNEQNFKLAGVKKDIEKLYEAVPQLSNVFKIEDKIGEGTFSSVYLATAQLQVGPEEKIALRHLIPTSHPIRIAAELQCLTVAGGQDNVMGVKYCFRKNDHVVIAMPYLEHESFLDILNSLSFQEVREYMLNLFKALKRIHQFGIVHRDVKPSNFLYNRRLKKYALVDFGLAQGTHDTKIELLKFVQSEAQQERCSQNKSHIITGNKIPLSGPVPKELDQQSTTKASVKRPYTNAQIQIKQGKDGKEGSVGLSVQRSVFGERNFNIHSSISHESPAVKLMKQSKTVDVLSRKLATKKKAISTKVMNSAVMRKTASSCPASLTCDCYATDKVCSICLSRRQQVAPRAGTPGFRAPEVLTKCPNQTTAIDMWSAGVIFLSLLSGRYPFYKASDDLTALAQIMTIRGSRETIQAAKTFGKSILCSKEVPAQDLRKLCERLRGMDSSTPKLTSDIQGHASHQPAISEKTDHKASCLVQTPPGQYSGNSFKKGDSNSCEHCFDEYNTNLEGWNEVPDEAYDLLDKLLDLNPASRITAEEALLHPFFKDMSL

Experiments:
[1] = molecular target: T1, DBF4 (human DBF4/ASK1), Q9UBU7
[2] = molecular target: T2, HA-DRF1 (DRF1 with N-terminal HA …)

Protein	phosphorylation of MCM2 (1-285) by immunoprecipitated complexes (32P kinase assay, autoradiography) [1]	phosphorylation of DRF1 (32P, FIG. 3 panel A) [2]	phosphorylation of MCM2 (1-285) by immunoprecipitated complexes (32P kinase assay, autoradiography) [2]	phosphorylation of MCM2 by CDC7 [2]
B1	DRF1 is a regulatory subunit of CDC7 able to induce its kinase activity in a way comparable to DBF4 (lane 5)	DRF1, as DBF4, was detected as a phosphoprotein when expressed with wild type CDC7 but not with the kinase negative	In the presence of HA-DRF1 and wild-type CDC7, efficient phosphorylation of MCM2 (1-285) (above the background shown in lane 4, panel B) was observed	in the presence of DRF1, CDC7 is able to phosphorylate its physiological substrates MCM2
B2			it can be abolished by overexpression of the mutant K90R (lanes 1 and 6)	
